The data set is described as follows: yeast display, Sf9 membrane polyspecificity reagent, FACS + sequencing; frameworks hold sequencing errors. Summed up:
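Synthetic nanobody libraries on Saccharomyces cerevisiae BJ5465 were galactose-induced for 36–48 hours, stained 1 hour at 4 °C with 10% biotinylated, detergent-solubilized Sf9 membrane reagent and enriched on streptavidin microbeads. FACS then separated cells into low and high (top ~1%) gates by anti-HA (expression) and streptavidin (reagent binding) fluorescence. Genes were colony-PCR amplified, MiSeq 2 × 250 sequenced and CDR-length filtered. A clone's polyreactivity label is that of its gate of origin.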
Consider “QVQLVESGGGLVQAGGSLRLSCAASGSTFFRYAMGWYRQAPGKEREFVAAITSSGGNTYYADSVKGRFTISRDNAKNTVYLQMNSLKPEDTAVYYCADVWYSPYVKYNYWGQGTQVTVSS”, for which the “polyreactivity (PSR sort gate)” value is listed as “low polyreactivity”.
The same measure for “QVQLVESGGGLVQAGGSLRLSCDASGRTLGGYTMGWYRQAPGKERELVAAITTGGSTNYADSVKGRFTISRDNAKNTVYLQMNSLKPEDTAVYYCATDLVFDKRYWYDYWGQGTQVTVSS”: “low polyreactivity”; for “QVQLVESGGGLVQAGGSLRLSCAASGSTFDKKAMGWYRQAPGKERELVAAITWRGGRTYYADSVKGRFTISRDNAKNTVYLQLNSLKPEDTAVYYCNKVSWEQMDYWGQGTQVTVSS”: “low polyreactivity”; for “QVQLVESGGGLVQAGGSLRLSCAASGFIFWLYAMGWYRQAPGKERELVAAISRSGGRTYYADSVKGRFTISRDNAKNTVYLQMNSLKPEDTAVYYCAKDDNYKSYPYDYWGQGTQVTVSS”: “high polyreactivity”.
Regarding “QVQHVESGGGLVQAGGSLRLSCAASGRISQIYAMGWYRQAPGKERELVARITSTDSTYYADSVKGRFTISRDNAKNTVYLQMNSLKPEDTAVYYCAASWWSPYDYWGQGTQVTVSS”, the “polyreactivity (PSR sort gate)” value is recorded as “low polyreactivity”.
The same measure for “QVQLVESGGGLVQAGGTLRLSCAASGLIFDANAMGWYRQAPGTERELVAAITGSGGRTYYADSVKGRFTISRDIAKHTVYLQMNSLKPEDTAVYYCAASSKRKYLYNYWGQGTQVTVSS”: “high polyreactivity”.
The same measure for “QVQLVESGGGLVQAGGSLRLSCAASGSIFAYYAMGWYRQAPGKERELVAGIRISGGRTYYADSVKGRFTISRDTAKNTVYLQMNSLKPEDTAVYYCNARWRGFRTGAGDYWGQGTQVTVSS”: “high polyreactivity”; for “QVQLVESGGGLVQAGGSLRLSCAASVFNFIYYTMGWYRPAPGKERELVAAISWSGGGTYYADSVKGRFTISRDNAKNTVYLLMNRLKPEDTAVYYCAAYWYVSSRDFEYWGQGTQVTVSS”: “high polyreactivity”.
The same measure for “QVQLQESAGLVQAGGLRLSCAASGSVSYQEAMGWYRQAPGKERELVATMSFGANTNYADSVKVRFTISRDNAKNTVYLQMNSLKPEETAVYYCAAESLFDDYYGYWGQGTQVTVSS”: “low polyreactivity”; for “QVQLVESGGGLVQAGGSLRLSCAASGRIFLGNVMGWYRQAPGKERELVAAISWSGGSTYADSVKGRFTISRDNAKNTVYLQMNSLKPEDTAVYYCNAELGSYDKDYDYWGQGTQVTVSS”: “low polyreactivity”; for “QVQLVVSGGGLVQAGGSLRLSCAASGITFGRNTMGWYRQAPGKERELVAAIDSGGNTYADSVKGRFTISRDNAKNTVYLQMNSLKPEDTAVYYCAVDGGEFSSYGYWGQGTQVTVSS”: “low polyreactivity”.
Take “QVQLVESRGGLVQAGGSLRLSCAASGSIFYRYAMGWYRPAPWKERELVAAIRRGGSTNYADSVKGRFTISRDNAKNTVYLQMNSLKPEDTAVYYCAAGRFTYAAQRYEYWGQGTQVTVSS”: the “polyreactivity (PSR sort gate)” value is “high polyreactivity”.
The same measure for “QVQLVESGGGLVQAGGSLRLSCAASGSTFYRNAMGWYRQAPGKERELVATITFNGGSTYYADSVKGRFTISRDNAKNTVYLQMNSLKPEDTAVYYCNTDWRGDPELYDYWGQGTQVTVSS”: “low polyreactivity”; for “QVQLVESGGRLFQAGGSLRLSCAASGRTWGYEMGWYRQATGKERELVAAIRNGASTYYADSVKGRFTISRDNAKKTVYFHMNSRKPEDTAVYYCDADYTVRVVATYDYWGQGTQVTVSS”: “low polyreactivity”.
The same measure for “QVQLVESGGGLVQAGGSLRLSCAASGFIFRPYVMGWYRQAPGKERELVAAISRSGSSTYYADSVKGRFTISRDNAKNTVYLQMNSLKPEDTAVYYCARRTSQEFDYWGQGTQVTVSS”: “high polyreactivity”; for “QVQLVESGGGLVQAGGSLRLSCAASGFTFSTYDMGWYRQAPRKERELVAAIDYIDGSTYYADSVKGRFTISRDNAKNTVDLQMNCLKPEDTAVYYCAAHYYYDEFGYWGQGTQVTVSS”: “low polyreactivity”.
The same measure for “QVQLVESGGGLVRAGGSLRLSCAASGSTFTNNAMGWYRQAPGKERELVAAITWIGGNTYYADTVKGRFTISRDNAKNTVYLQMNSLKPEDTAVYYCAADRRSRYHDVYGWLYYYWGQGTQVTVSS”: “low polyreactivity”; for “QVQLVESGGGLVQAGGSLRLSCAASGFTFSLYAMGWYRQAPGKDRELVASISRSGGSTYYADSVKGRFTISRDNAKYTVYIQMYSLKPEDTAVYYCAARWRPYKYDSWGQGTQVTVSS”: “high polyreactivity”.
As for “QVQLVESGGGLVQAGGSLRLSCAASGRSFVSYAMGWYRQAPGKERELVASITSSDGTNYADSVKGRFTISRDNEKNTVYLQMNSLKPEDTAVFYCNKDGFTTDRIGPTSDYWGQGTQVTVSS”, the “polyreactivity (PSR sort gate)” value is “low polyreactivity”.
Regarding “QVQLVESGGGLVQAGGSLRLSCDASGSIISYYTMGWYRQAPWKERELVAAISLTGGSTYYADSVKGRFTISRDNAKNTVYLQMNSLKPEDTAVYYCIAVRYASPYGYWGQGTLVTVSS”, the “polyreactivity (PSR sort gate)” value is “high polyreactivity”.
Consider “QVQLVDSGGGLVQAGGSLGLSCAASGSIFRNYAMGWYRQAPGKERELVAAISYRVGRTYYADSVKGRFTISRDNAKNSVYLQMNSLNPEDTAVYYCAADSRSPGHDYWGQGTQVTVSS”, for which the “polyreactivity (PSR sort gate)” value is reported as “low polyreactivity”.
The same measure for “QDQLVESRGALVQAGGSLRLSCAASGIIFGRNAMGWYRQAPRKERELVAGITRRGARTYYADSVKGRFTISRDNAKNTVYFQMNILKPEDTAVYYCAAVGPYRWYDYWGQGTQVTVSS”: “high polyreactivity”; for “QVQLVESGGGLVQAGGSLRLSCAASGRTFLGYAMGWYRQAPGKERELVAAISYSGSSTYYADSVKGRFTISRDNAKNTVYLQMNSLKPEDTAVYYCAAQFYFLFDYWGQGTQVTVSS”: “low polyreactivity”.
The same measure for “QVQLVESGGGLVQAGGSLRLSCAASGYTFDVYAMGWYRQAPGTERELVAAISDSGGSTYYADSVKGRFTISRDNAKNTVYLQMNSLKPEDTAVYFCAAGYDYFYAIVSPSEYDYWGQGTQVTVSS”: “low polyreactivity”; for “QVQLVESGGGLDQAGGSLRLSCAASGITLTANAMGWYRQSPGTERELVAAISRGGSTYYADSVKGRFTISRDNAKNTVYLQMNSVKPEDTQVFYCNKAGGYWYAKRDYDYWGQGTQVTVSS”: “high polyreactivity”.
The same measure for “QVQLVESGGGLVQAGGSLRLSCAASGFTFNRNAMGWYRQAPGKERELVAAISWSGGSTYYADSVKGRFTLSRDNAKNTVYLQMNSLKPEETAVYYCAKGYRRVYGPFYYWGQGTQVTVSS”: “low polyreactivity”.
For “QVKLVESAGGLVQAGGSLRLSCSASAFIFGFNAMGWYRQEPGKERELVAAITWRGGRTSNADSVKGRFTISRDNAKNTVYLQMNSLKPEDTAVYYCAARRGTIVTRSRGYNYWGQGTQVTVSS”, the “polyreactivity (PSR sort gate)” value was “high polyreactivity”.
In the case of “QVQLVESGGGLVQAGGSLRVSCAASGFTFGYYGMGWYRQAPGKERELVAAISWSGGSTYYADSVKGRFTISRDNAKYTVYLQMNSLKPEVTAVYYCNADYAGFYQRRYIEDDYWGQGTQVTVSS”, the “polyreactivity (PSR sort gate)” value is “low polyreactivity”.
The same measure for “QDHLVESGGGLVQAGGSLRVSCAASGLVYGQYAMGWYRPAPGKERELVAAINWSGGRTYYADSVKGRFTISRDNAKNTVYLQMNSLKPEDTAVYYCAADDPQDQDYENNYWGQGTQVNVSS”: “high polyreactivity”.
Regarding “QVQLVESWGGLVQAAASLRLICDASGRTIRWSAMGWYRPAPGKERELVATITTSGTPSYADSVKGRFTISRDNAKNTVYLQMNSLTPEDTAVYYCAADTYPWGGSSSYDWGQGTQVTVSS”, the “polyreactivity (PSR sort gate)” value is reported as “high polyreactivity”.

The values are drawn from the nanobody polyreactivity screen of Harvey et al. (2022).
